Assays:
[1] = biological target: T1, B7-H3 on surface of tumor cell (786-0, MDA-MB-231, Raji-B7-H3 cells) (human, UniProt Q5ZPR3 29-534); assay: FACS on 786-0 cells
T1 construct: whole, on cells; The making of Raji-B7-H3 cells is not described; also called B7-H3 on the surface of tumor cells; human B7-H3
T1 sequence (looked up): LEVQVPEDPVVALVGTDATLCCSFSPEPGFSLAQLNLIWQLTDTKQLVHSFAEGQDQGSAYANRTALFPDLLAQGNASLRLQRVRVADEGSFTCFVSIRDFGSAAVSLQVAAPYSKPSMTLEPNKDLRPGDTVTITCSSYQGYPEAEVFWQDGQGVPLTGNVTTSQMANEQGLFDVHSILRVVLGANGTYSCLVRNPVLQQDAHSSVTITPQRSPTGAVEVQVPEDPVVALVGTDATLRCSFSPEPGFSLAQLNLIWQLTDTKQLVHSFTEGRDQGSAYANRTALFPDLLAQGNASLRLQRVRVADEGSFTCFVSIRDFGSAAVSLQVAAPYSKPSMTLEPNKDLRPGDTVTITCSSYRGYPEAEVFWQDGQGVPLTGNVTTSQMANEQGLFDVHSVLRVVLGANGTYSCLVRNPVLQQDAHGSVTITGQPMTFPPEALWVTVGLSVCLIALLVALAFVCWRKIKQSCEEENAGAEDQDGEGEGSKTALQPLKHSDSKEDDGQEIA
Method: (§1) The binding activity of antibodies to B7-H3 on the surface of tumor cells was analyzed by FACS. Mean fluorescence intensity (MFI) and EC₅₀ detected by FACS indicate the binding activity of the antibody to cells. After 786-0 and MDA-MB-231 cells were digested, they were resuspended in 2% FBS-PBS solution and counted. After raji-B7-H3 cells were collected, they were resuspended in 2% FBS-PBS and counted. The above cells were plated in a cell plate with 1×10⁵ cells per well. The anti-B7-H3 antibody of the present disclosure was used as the primary antibody and added to cell plates in gradient dilution starting from 20 μg/mL with a total of 8 concentrations: 20,000 ng/mL, […], 2,000 ng/mL, 400 ng/mL, 80 ng/mL, 16 ng/mL, 3.2 ng/mL, and 0.64 ng/mL respectively. The plates were incubated at 4° C. for 1 h with hBRCA84D as the positive control antibody. PE-Anti-Human IgG (Biolegend, Cat. No. 409303, 1.25 μl/well) was used as the secondary antibody, washed, and detected for the fluorescence intensity generated by the binding of the antibody to the cell surface by a flow cytometer.

[2] = biological target: T2, Cynomolgus B7-H3-His (Sino Biological, Cat. No. 90806-C08H) (cynomolgus monkey); assay: ELISA, plate coated with cynomolgus B7-H3-His, detection with anti-human IgG HRP, OD450
T2 construct: Bought reagent; also called cynomolgus monkey B7-H3; monkey B7-H3
Method: The binding activity of antibodies was analyzed by protein based ELISA. Cynomolgus B7-H3-His (0.5 μg/well, Sino Biological, Cat. No. 90806-C08H) was coated on 96-well ELISA plates. The anti-B7-H3 antibodies of the present disclosure was used as the primary antibody and added to the ELISA plates in 5-fold gradient dilution starting from 2 μg/mL with a total of 8 concentrations: 2,000 ng/mL, 400 ng/mL, 80 ng/mL, 16 ng/mL, 3.2 ng/mL, 0.64 ng/mL, 0.128 ng/mL, and 0.0256 ng/mL respectively. The plates were incubated at 37° C. for 2 h with AB06.12-4P as the positive control antibody. Anti-Human IgG HRP (Jackson, 109-035-003, 1:10,000) was used as the secondary antibody. Color developing solution TMB (3,3′,5,5′-tetramethylbenzidine) was added to the plate, and microplate reader (Thermo, Multiskan FC) was used to read OD450 value after termination of the reaction. EC₅₀ was generated by GraphPad.

[3] = biological target: T1, B7-H3 on surface of tumor cell (786-0, …); assay: FACS on MDA-MB-231 cells
Method: as §1

[4] = biological target: T1, B7-H3 on surface of tumor cell (786-0, …); assay: cell-based or functional assay
[5] = biological target: T3, human 2Ig-B7-H3-His protein (human, UniProt Q5ZPR3 29-463); assay: ELISA, plate coated with human 2Ig-B7-H3-His, detection with anti-human IgG HRP, OD450
T3 sequence: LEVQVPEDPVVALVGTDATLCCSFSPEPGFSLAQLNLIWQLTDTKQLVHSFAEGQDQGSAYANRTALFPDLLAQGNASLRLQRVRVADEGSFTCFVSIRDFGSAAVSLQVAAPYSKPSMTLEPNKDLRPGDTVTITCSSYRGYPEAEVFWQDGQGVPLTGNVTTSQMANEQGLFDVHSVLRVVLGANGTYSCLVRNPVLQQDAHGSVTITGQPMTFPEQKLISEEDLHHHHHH
Method: The binding activity of antibodies was analyzed by ELISA. 96-well ELISA plates were coated with human 4Ig-B7-H3-His protein or 2Ig-B7-H3-His protein (1 μg/well, prepared in Examples 1 and 2) and incubated overnight at 4° C. The plates were washed 3 times with 1×PBST and then blocked with 5% skim milk at 37° C. for 2 h. After washing 3 times with 1×PBST, the anti-B7-H3 antibody of the present disclosure was used as the primary antibody and added to the ELISA plates in 5-fold gradient dilution starting from 2 μg/mL with a total of 8 concentrations: 2,000 ng/mL, 400 ng/mL, 80 ng/mL, 16 ng/mL, 3.2 ng/mL, 0.64 ng/mL, 0.128 ng/mL and 0.0256 ng/mL respectively. The plates were incubated at 37° C. for 2 h with hBRCA84D as the positive control antibody. After washing 5 times with 1×PBST, Anti-Human IgG HRP (Jackson, 109-035-003, 1:5000) was used as the secondary antibody and incubated at 37° C. for 1 h. After washing 5 times with 1×PBST, color developing solution TMB was added to the plate, and microplate reader (Thermo, Multiskan FC) was used to read OD450 value after termination of the reaction. EC₅₀ was generated by GraphPad.

[6] = biological target: T1, B7-H3 on surface of tumor cell (786-0, …); assay: FACS on Raji-B7-H3 cells
Method: as §1

- EC50 [1]: 0.226 µg/mL
- Mean fluorescence intensity (MFI) [1]: 233000
- EC50 (read off the curve) [2]: ~0.006 µg/mL
- EC50 [3]: 0.384 µg/mL
- Mean fluorescence intensity (MFI) [3]: 35800
- EC50 Ratio (ADCC, LDH method; EC50 of hBRCA84D divided by EC50 of the antibody; 786-0 target cells, human PBMC effectors) [4]: 1
- EC50 (read off the curve) [5]: ~0.01 µg/mL
- Mean fluorescence intensity (MFI) [6]: 233000
B1: hBRCA84D (antibody, human IgG1, kappa, V domains shown)
VH: EVQLVESGGGLVQPGGSLRLSCAASGFTFSSFGMHWVRQAPGKGLEWVAYISSDSSAIYYADTVKGRFTISRDNAKNSLYLQMNSLRDEDTAVYYCGRGRENIYYGSRLDYWGQGTTVTVSS
VL: DIQLTQSPSFLSASVGDRVTITCKASQNVDTNVAWYQQKPGKAPKALIYSASYRYSGVPSRFSGSGSGTDFTLTISSLQPEDFATYYCQQYNNYPFTFGQGTKLEIKR
notes: Humanized antibody from WO2011/109400; also called positive control antibody hBRCA84D; control antibody hBRCA84D
